Test results published in patent US20180051287, “COMPOSITIONS AND METHODS FOR INHIBITING FACTOR D” (Vitrisa Therapeutics, Inc., published 2018).

Tests used:
complement factor D (fD) [1] = target: T1, complement factor D (fD) (Homo sapiens, UniProt P00746 SEQ:1-228); assay: FP filter; not above naive library (3.6%); 100 nM DNA, 5 uM fD; details: tags: 6xHis, label: end-labeled
Description: (§1) Specificity of binding was assessed by measuring binding to casein. In all binding reactions, the oligonucleotide concentration was 100 nM, the fD concentration 5 μM and the casein concentration 20 μM.

complement factor D (fD) [2] = target: T1, complement factor D (fD); assay: FP filter; double-filter nitrocellulose binding; 100 nM DNA, 5 uM fD; details: tags: 6xHis; label: end-labeled; potential G4
Description: as §1

complement factor D (fD) [3] = target: T1, complement factor D (fD); assay: inhibition; alternative-pathway hemolysis of rabbit RBC, C1q-depleted human serum, room temperature; details: protein: extract; tags: endogenous fD in C1q-depleted human serum; label: Dy650-N30S.R.OMe 2'-OMe oligo hybridized to 3' constant region (flow assays)
Description: Briefly, citrated rabbit blood was centrifuged at 500×g for 5 minutes at room temperature. The top plasma fraction was removed and the volume was replaced with 1× Veronal buffer containing 0.1% gelatin (prepared from 5× Veronal buffer, Lonza #12-624E and 2% gelatin solution, Sigma-Aldrich, G1393). The red blood cells were washed two more times. The washed rabbit red blood cells were diluted in 1× Veronal buffer to a concentration of 2×10⁹ cells/mL (RBCs).
In V-bottom 96-well plates the following reagents were added to a final volume of […] of 1× Veronal buffer with 0.1% gelatin, 100 μL aptamer, 30 μL of C1q-depleted human serum and 20 μL RBCs. This mixture was incubated for 25 minutes at room temperature, then the reaction was stopped by the addition of 5 μL of 500 mM EDTA. The plate was centrifuged for 5 minutes at 500×g at room temperature, then 100 μL of supernatant was removed and the extent of RBC lysis was determined by measuring absorbance at 405 nm.
C1-C3 identified in Example 1, a non-specific control oligo (C8), and one anti-fD Fab antibody fragment as described in Example 1 (AFD) were incubated with C1q-depleted human serum to allow binding to fD present in the serum, then assayed for the ability to inhibit fD-dependent lysis of rabbit red blood cells (FIG. 11). […] IC₅₀ values for C1-C3, C8 and AFD are depicted in Table 14.

T1 sequence (P00746 26-253): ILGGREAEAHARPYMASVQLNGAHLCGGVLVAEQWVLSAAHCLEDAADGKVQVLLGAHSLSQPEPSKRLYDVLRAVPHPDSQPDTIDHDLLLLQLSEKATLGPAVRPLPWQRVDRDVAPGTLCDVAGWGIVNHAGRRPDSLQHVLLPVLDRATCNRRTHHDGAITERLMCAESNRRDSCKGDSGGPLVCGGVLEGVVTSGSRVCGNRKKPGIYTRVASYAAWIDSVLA

B1: Aptamer 10 (rank 7) (ssDNA)
DNA: GTGACGACTGACATATCTGCCCTATAGGGGTGTGGGCGAGGGGTGGGTGGTAGGGCGGCTCGTAGTTGAGTCTGAGTGCT
binding signal (complement factor D (fD) [1]; potential G4): 1.9 % bound

B2: Aptamer 27 (rank 24) (ssDNA)
DNA: GTGACGACTGACATATCTGCGGGCGTCTGAGCGCATGGATGACCCACCGACAGATTGCGGCGTAGTTGAGTCTGAGTGCT
binding signal (complement factor D (fD) [1]; non-G4): 0.7 % bound

B3: Aptamer 8 (rank 5) (ssDNA)
DNA: GTGACGACTGACATATCTGCTATTTTGGGGCCTGGGTGTTGGGGATTGGGGACTATGTGTCGTAGTTGAGTCTGAGTGCT
binding signal (complement factor D (fD) [2]): 60.3 % bound

B4: C3 (Aptamer 3) (ssRNA)
RNA: GGGAGUGUGUACGAGGCAUUAGGCCGCCACCUCGUUUGAUUGCGGUUGUUCGGCCGCGGGCGGCUUUGAUACUUGAUCGCCCUAGAAGC
modifications: 2'-F G; 2'-OMe A, C, U
IC50 (complement factor D (fD) [3]): 7 nM

B5: Aptamer 7 (rank 4) (ssDNA)
DNA: GTGACGACTGACATATCTGCGGCGGTTGGGGTCGAAGGGCGAGGGGTGGGAGGTCGCCGTAGTTGAGTCTGAGTGCT
binding signal (complement factor D (fD) [1]; potential G4): 3.2 % bound

B6: C1 (Aptamer 1) (ssRNA)
RNA: GGGAGUGUGUACGAGGCAUUAGGCCGCCACCCAAACUGCAGUCCUCGUAAGUCUGCCUGGCGGCUUUGAUACUUGAUCGCCCUAGAAGC
modifications: 2'-F G; 2'-OMe A, C, U
IC50 (complement factor D (fD) [3]): 5.1 nM

B7: Aptamer 12 (rank 9) (ssDNA)
DNA: GTGACGACTGACATATCTGCAAAAGTTAGATTGACATGGTATGCACCGTCTGAGGTTGGTCGTAGTTGAGTCTGAGTGCT
binding signal (complement factor D (fD) [1]; non-G4): 1.6 % bound

B8: Aptamer 4 (rank 1) (ssDNA)
DNA: GTGACGACTGACATATCTGCTCCGAGGTTATTGGGGTTGGGGCCTGGGCGATTGGGGCCTCGTAGTTGAGTCTGAGTGCT
binding signal (complement factor D (fD) [2]): 58.3 % bound

B9: Aptamer 15 (rank 12) (ssDNA)
DNA: GTGACGACTGACATATCTGCTGCTTCCAGCGGTCATGATATGCACTGTCTGAAGCTCGGTCGTAGTTGAGTCTGAGTGCT
binding signal (complement factor D (fD) [1]; non-G4): 0.4 % bound

B10: Aptamer 5 (rank 2) (ssDNA)
DNA: GTGACGACTGACATATCTGCGTTTGGGGTTGGGGCCTGGGAGTTTGGGGAGCAGAAAGGACGTAGTTGAGTCTGAGTGCT
binding signal (complement factor D (fD) [2]): 63 % bound

B11: C2 (Aptamer 2) (ssRNA)
RNA: GGGAGUGUGUACGAGGCAUUAGUCCGCCGAAGUCUUUUGGCUCGGUUUUUUCAAGGUCGGCGGCUUUGAUACUUGAUCGCCCUAGAAGC
modifications: 2'-F G; 2'-OMe A, C, U
IC50 (complement factor D (fD) [3]): 3.3 nM
